What is called stoichiometry N is the number of molecules, sites or subunits per partner or assembly.

The target of this assay is MBP-ROCK2 (full-length ROCK2 with N-terminal MBP tag) (human), O75116. Briefly: SAXS; MBP-ROCK2 alone; 25 mM HEPES pH 7.4, 25 °C, concentration series 0.3–1.1 mg/ml; molecular mass from the scattering extrapolated to zero angle. Conditions: remark: other sources report otherwise.

B1: MBP-ROCK2 (full-length ROCK2 with N-terminal MBP tag), O75116 1-1388 (enzyme)
chain: MSRPPPTGKMPGAPETAPGDGAGASRQRKLEALIRDPRSPINVESLLDGLNSLVLDLDFPALRKNKNIDNFLNRYEKIVKKIRGLQMKAEDYDVVKVIGRGAFGEVQLVRHKASQKVYAMKLLSKFEMIKRSDSAFFWEERDIMAFANSPWVVQLFYAFQDDRYLYMVMEYMPGGDLVNLMSNYDVPEKWAKFYTAEVVLALDAIHSMGLIHRDVKPDNMLLDKHGHLKLADFGTCMKMDETGMVHCDTAVGTPDYISPEVLKSQGGDGFYGRECDWWSVGVFLYEMLVGDTPFYADSLVGTYSKIMDHKNSLCFPEDAEISKHAKNLICAFLTDREVRLGRNGVEEIRQHPFFKNDQWHWDNIRETAAPVVPELSSDIDSSNFDDIEDDKGDVETFPIPKAFVGNQLPFIGFTYYRENLLLSDSPSCRETDSIQSRKNEESQEIQKKLYTLEEHLSNEMQAKEELEQKCKSVNTRLEKTAKELEEEITLRKSVESALRQLEREKALLQHKNAEYQRKADHEADKKRNLENDVNSLKDQLEDLKKRNQNSQISTEKVNQLQRQLDETNALLRTESDTAARLRKTQAESSKQIQQLESNNRDLQDKNCLLETAKLKLEKEFINLQSALESERRDRTHGSEIINDLQGRICGLEEDLKNGKILLAKVELEKRQLQERFTDLEKEKSNMEIDMTYQLKVIQQSLEQEEAEHKATKARLADKNKIYESIEEAKSEAMKEMEKKLLEERTLKQKVENLLLEAEKRCSLLDCDLKQSQQKINELLKQKDVLNEDVRNLTLKIEQETQKRCLTQNDLKMQTQQVNTLKMSEKQLKQENNHLMEMKMNLEKQNAELRKERQDADGQMKELQDQLEAEQYFSTLYKTQVRELKEECEEKTKLGKELQQKKQELQDERDSLAAQLEITLTKADSEQLARSIAEEQYSDLEKEKIMKELEIKEMMARHKQELTEKDATIASLEETNRTLTSDVANLANEKEELNNKLKDVQEQLSRLKDEEISAAAIKAQFEKQLLTERTLKTQAVNKLAEIMNRKEPVKRGNDTDVRRKEKENRKLHMELKSEREKLTQQMIKYQKELNEMQAQIAEESQIRIELQMTLDSKDSDIEQLRSQLQALHIGLDSSSIGSGPGDAEADDGFPESRLEGWLSLPVRNNTKKFGWVKKYVIVSSKKILFYDSEQDKEQSNPYMVLDIDKLFHVRPVTQTDVYRADAKEIPRIFQILYANEGESKKEQEFPVEPVGEKSNYICHKGHEFIPTLYHFPTNCEACMKPLWHMFKPPPALECRRCHIKCHKDHMDKKEEIIAPCKVYYDISTAKNLLLLANSTEEQQKWVSRLVKKIPKKPPAPDPFARSSPRTSMKIQQNQSIRRPSRQLAPNKPS
On to B1, for which the stoichiometry N was 2.
